# In IntAct's records for PubMed 31515488:
# B1: Glycine N-methyltransferase (Homo sapiens), Q14749 (parent)
# chain: MVDSVYRTRSLGVAAEGLPDQYADGEAARVWQLYIGDTRSRTAEYKAWLLGLLRQHGCQRVLDVACGTGVDSIMLVEEGFSVTSVDASDKMLKYALKERWNRRHEPAFDKWVIEEANWMTLDKDVPQSAEGGFDAVICLGNSFAHLPDCKGDQSEHRLALKNIASMVRAGGLLVIDHRNYDHILSTGCAPPGKNIYYKSDLTKDVTTSVLIVNNKAHMVTLDYTVQVPGAGQDGSPGLSKFRLSYYPHCLASFTELLQAAFGGKCQHSVLGDFKPYKPGQTYIPCYFIHVLKRTD
# B2: Isoform 1 of Myotubularin-related protein 9 (Homo sapiens), Q96QG7-1 (parent)
# chain: MEFAELIKTPRVDNVVLHRPFYPAVEGTLCLTGHHLILSSRQDNTEELWLLHSNIDAIDKRFVGSLGTIIIKCKDFRIIQLDIPGMEECLNIASSIEALSTLDSITLMYPFFYRPMFEVIEDGWHSFLPEQEFELYSSATSEWRLSYVNKEFAVCPSYPPIVTVPKSIDDEALRKVATFRHGGRFPVLSYYHKKNGMVIMRSGQPLTGTNGRRCKEDEKLINATLRAGKRGYIIDTRSLNVAQQTRAKGGGFEQEAHYPQWRRIHKSIERYHILQESLIKLVEACNDQTHNMDRWLSKLEASNWLTHIKEILTTACLAAQCIDREGASILIHGTEGTDSTLQVTSLAQIILEPRSRTIRGFEALIEREWLQAGHPFQQRCAQSAYCNTKQKWEAPVFLLFLDCVWQILRQFPCSFEFNENFLIMLFEHAYASQFGTFLGNNESERCKLKLQQKTMSLWSWVNQPSELSKFTNPLFEANNLVIWPSVAPQSLPLWEGIFLRWNRSSKYLDEAYEEMVNIIEYNKELQAKVNILRRQLAELETEDGMQESP
# partner: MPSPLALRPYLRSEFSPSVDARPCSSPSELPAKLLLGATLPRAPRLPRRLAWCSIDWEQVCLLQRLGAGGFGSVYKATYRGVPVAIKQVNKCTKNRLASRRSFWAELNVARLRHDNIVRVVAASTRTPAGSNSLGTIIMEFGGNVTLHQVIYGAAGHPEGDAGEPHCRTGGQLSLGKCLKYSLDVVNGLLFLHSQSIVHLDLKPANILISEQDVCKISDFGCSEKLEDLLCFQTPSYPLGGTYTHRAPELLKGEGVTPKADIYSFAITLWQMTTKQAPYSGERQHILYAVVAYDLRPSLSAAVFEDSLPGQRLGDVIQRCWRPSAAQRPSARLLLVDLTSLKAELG
# B3: Centrosomal protein of 55 kDa (Homo sapiens), Q53EZ4 (parent)
# chain: MSSRSTKDLIKSKWGSKPSNSKSETTLEKLKGEIAHLKTSVDEITSGKGKLTDKERHRLLEKIRVLEAEKEKNAYQLTEKDKEIQRLRDQLKARYSTTTLLEQLEETTREGERREQVLKALSEEKDVLKQQLSAATSRIAELESKTNTLRLSQTVAPNCFNSSINNIHEMEIQLKDALEKNQQWLVYDQQREVYVKGLLAKIFELEKKTETAAHSLPQQTKKPESEGYLQEEKQKCYNDLLASAKKDLEVERQTITQLSFELSEFRRKYEETQKEVHNLNQLLYSQRRADVQHLEDDRHKTEKIQKLREENDIARGKLEEEKKRSEELLSQVQFLYTSLLKQQEEQTRVALLEQQMQACTLDFENEKLDRQHVQHQLHVILKELRKARNQITQLESLKQLHEFAITEPLVTFQGETENREKVAASPKSPTAALNESLVECPKCNIQYPATEHRDLLVHVEYCSK
# partner: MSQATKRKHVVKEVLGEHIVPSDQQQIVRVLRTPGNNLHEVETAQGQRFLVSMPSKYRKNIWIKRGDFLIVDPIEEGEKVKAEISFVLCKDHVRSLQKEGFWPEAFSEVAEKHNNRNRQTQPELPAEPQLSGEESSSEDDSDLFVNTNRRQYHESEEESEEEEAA
# B4: Keratin, type I cuticular Ha8 (Homo sapiens), O76015 (parent)
# chain: MTSSYSSSSCPLGCTMAPGARNVSVSPIDIGCQPGAEANIAPMCLLANVAHANRVRVGSTPLGRPSLCLPPTCHTACPLPGTCHIPGNIGICGAYGENTLNGHEKETMQFLNDRLANYLEKVRQLEQENAELEATLLERSKCHESTVCPDYQSYFHTIEELQQKILCSKAENARLIVQIDNAKLAADDFRIKLESERSLRQLVEADKCGTQKLLDDATLAKADLEAQQESLKEEQLSLKSNHEQEVKILRSQLGEKLRIELDIEPTIDLNRVLGEMRAQYEAMLETNRQDVEQWFQAQSEGISLQDMSCSEELQCCQSEILELRCTVNALEVERQAQHTLKDCLQNSLCEAEDRFGTELAQMQSLISNVEEQLSEIRADLERQNQEYQVLLDVKTRLENEIATYRNLLESEDCKLPCNPCSTSPSCVTAPCAPRPSCGPCTTCGPTCGASTTGSRF
# Variants of: B1
# Settings: with ntaq1_human NTAQ1, Q96HA8
row,effect of a mutation on the interaction,Variant
1,with no effect,I211T

# Variants of: B1
# Settings: with arrc_human ARR3, P36575
# Sequence of arrc_human ARR3, P36575 (P36575 whole entry): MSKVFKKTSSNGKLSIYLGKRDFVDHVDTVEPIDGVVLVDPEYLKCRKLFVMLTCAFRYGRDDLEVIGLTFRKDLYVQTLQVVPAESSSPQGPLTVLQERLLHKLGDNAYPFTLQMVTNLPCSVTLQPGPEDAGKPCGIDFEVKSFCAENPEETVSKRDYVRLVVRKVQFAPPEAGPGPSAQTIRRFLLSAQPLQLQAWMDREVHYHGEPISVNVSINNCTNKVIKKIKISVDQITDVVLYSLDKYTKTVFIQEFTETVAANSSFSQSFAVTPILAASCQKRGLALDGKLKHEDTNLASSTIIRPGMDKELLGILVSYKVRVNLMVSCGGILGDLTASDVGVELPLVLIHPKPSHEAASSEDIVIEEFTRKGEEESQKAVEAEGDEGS
row,effect of a mutation on the interaction,Variant
1,disrupting interaction strength,I211T

# Variants of: B1
# Settings: with arrb1_human ARRB1, P49407
# Sequence of arrb1_human ARRB1, P49407 (P49407 whole entry): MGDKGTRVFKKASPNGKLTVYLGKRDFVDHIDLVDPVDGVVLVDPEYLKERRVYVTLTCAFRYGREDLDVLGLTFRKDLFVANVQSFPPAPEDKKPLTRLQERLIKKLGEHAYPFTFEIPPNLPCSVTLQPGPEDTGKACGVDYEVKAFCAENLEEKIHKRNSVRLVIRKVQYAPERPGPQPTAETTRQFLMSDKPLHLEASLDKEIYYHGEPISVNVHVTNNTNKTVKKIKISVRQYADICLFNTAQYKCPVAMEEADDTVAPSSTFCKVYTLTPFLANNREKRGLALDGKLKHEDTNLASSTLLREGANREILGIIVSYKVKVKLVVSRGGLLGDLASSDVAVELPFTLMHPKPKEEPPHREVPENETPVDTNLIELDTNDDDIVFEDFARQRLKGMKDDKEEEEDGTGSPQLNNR
row,effect of a mutation on the interaction,Variant
1,disrupting interaction strength,I211T

# Variants of: B2
# Settings: with mos_human MOS
row,effect of a mutation on the interaction,Variant
1,with no effect,F127I

# Variants of: B2
# Settings: with mos_human MOS
# Remark: another data set of the same source
row,effect of a mutation on the interaction,Variant
1,with no effect,S126C

# Variants of: B3
# Settings: with eif1a_human EIF1AD
row,effect of a mutation on the interaction,Variant
1,with no effect,R348K
2,with no effect,C236R
3,with no effect,H57Q
4,with no effect,A244P

# Variants of: B4
# Settings: with k2c4_human KRT4, P19013
# Sequence of k2c4_human KRT4, P19013 (P19013 whole entry): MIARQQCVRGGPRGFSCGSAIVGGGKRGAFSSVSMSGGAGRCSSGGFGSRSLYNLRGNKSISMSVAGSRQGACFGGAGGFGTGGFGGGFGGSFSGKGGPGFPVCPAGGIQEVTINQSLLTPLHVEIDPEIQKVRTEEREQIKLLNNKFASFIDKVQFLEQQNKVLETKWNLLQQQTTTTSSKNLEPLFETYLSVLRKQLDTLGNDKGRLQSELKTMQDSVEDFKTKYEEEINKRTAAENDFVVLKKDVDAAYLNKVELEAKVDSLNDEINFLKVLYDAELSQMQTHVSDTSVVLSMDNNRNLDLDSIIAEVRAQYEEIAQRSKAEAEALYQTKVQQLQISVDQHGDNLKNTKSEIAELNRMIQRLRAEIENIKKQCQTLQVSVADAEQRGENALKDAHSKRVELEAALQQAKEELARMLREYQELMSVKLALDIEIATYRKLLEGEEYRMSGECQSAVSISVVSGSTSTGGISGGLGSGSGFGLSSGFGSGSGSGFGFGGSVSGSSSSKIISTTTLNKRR
row,effect of a mutation on the interaction,Variant
1,with no effect,A205S

# Variants of: B4
# Settings: with k2c8_human KRT8, P05787
# Sequence of k2c8_human KRT8, P05787 (P05787 whole entry): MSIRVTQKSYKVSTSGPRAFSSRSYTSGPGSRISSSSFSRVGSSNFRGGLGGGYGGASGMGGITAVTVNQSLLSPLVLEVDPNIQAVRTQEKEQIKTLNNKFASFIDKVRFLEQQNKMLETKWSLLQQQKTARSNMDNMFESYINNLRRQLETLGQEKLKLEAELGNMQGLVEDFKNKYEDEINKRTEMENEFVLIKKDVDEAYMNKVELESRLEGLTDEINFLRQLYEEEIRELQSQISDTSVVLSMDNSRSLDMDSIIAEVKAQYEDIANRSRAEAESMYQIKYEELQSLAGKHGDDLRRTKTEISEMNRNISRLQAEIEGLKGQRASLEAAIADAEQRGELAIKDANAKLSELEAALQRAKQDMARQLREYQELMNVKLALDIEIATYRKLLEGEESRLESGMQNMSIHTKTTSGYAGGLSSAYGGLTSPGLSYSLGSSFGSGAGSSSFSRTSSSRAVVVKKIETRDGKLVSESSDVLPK
row,effect of a mutation on the interaction,Variant
1,with no effect,A205S

# Variants of: B4
# Settings: with KRT6A
row,effect of a mutation on the interaction,Variant
1,with no effect,A205S

# Variants of: B4
# Settings: with k22e_human KRT2, P35908
# Sequence of k22e_human KRT2, P35908 (P35908 whole entry): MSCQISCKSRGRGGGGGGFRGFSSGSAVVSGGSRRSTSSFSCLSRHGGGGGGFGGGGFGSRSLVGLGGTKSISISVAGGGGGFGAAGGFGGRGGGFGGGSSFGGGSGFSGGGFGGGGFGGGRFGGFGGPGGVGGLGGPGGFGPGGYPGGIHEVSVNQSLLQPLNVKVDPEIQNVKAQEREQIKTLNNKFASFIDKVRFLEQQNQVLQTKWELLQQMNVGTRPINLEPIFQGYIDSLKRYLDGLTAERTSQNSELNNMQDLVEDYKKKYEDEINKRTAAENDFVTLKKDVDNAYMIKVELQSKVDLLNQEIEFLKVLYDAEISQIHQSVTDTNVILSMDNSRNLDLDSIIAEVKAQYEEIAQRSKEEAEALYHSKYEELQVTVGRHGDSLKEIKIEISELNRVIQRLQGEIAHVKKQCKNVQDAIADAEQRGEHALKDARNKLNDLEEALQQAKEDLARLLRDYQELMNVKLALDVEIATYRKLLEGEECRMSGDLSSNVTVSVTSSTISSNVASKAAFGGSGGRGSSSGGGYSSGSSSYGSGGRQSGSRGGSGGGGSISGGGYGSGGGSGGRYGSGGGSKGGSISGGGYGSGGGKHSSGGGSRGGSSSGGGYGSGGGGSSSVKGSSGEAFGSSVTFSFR
row,effect of a mutation on the interaction,Variant
1,with no effect,A205S
